Results: patent US8969060B2, “Modified glucose dehydrogenase” (Ikeda Food Research Co., Ltd., priority 2011, dated 2015)

B1: N287D + D343E + K494E: modified GLD: SEQ ID NO: 1 with substitutions N287D, D343E, K494E (protein, listed as Aspergillus terreus)
chain: MLGKLSFLSALSLAVAAPLSNSTSAKYDYIVIGGGTSGLAVANRLSEDPNVNVLILEAGGSVWNNPNVTNVDGYGLAFGSDIDWQYQSVNQPYGGNLSQVLRAGKALGGTSTINGMAYTRAEDVQIDAWETIGNTGWTWKNLFPYYRKSENFTVPTKSQTSLGASYEAGAHGHEGPLDVAFTQIESNNLTTYLNRTFQGMGLPWTEDVNGGKMRGFNLYPSTVNLEEYVREDAARAYYWPYKSRPNLHVLLNTFANRIVWDGEAHDGHITASGVEITSRNGTVRVIDAEKEVIVSAGALKSPAILELSGIGNPSVLDKHNIPVKVNLPTVGENLQDQVNSHMEASGNTSISGTKAVSYPDVYDVFGDEAESVAKQIRANLKQYAADTAKANGNIMKAADLERLFEVQYDLIFKGRVPIAEVLNYPGSATSVFAEFWALLPFARGSVHIGSSNPAEFPVINPNYFMLDWDAKSYVAVAKYIRRSFESYPLSSIVEESTPGYDVIPRNASEQSWKEWVFDKNYRSNFHPVGTAAMMPREIGGVVDERLNVYGTTNVRVVDASVLPFQVCGHLVSTLYAVAERAADLIKADAGRR
modifications: SIGNAL (1)..(19)
B2: D343E + L562H: modified GLD: SEQ ID NO: 1 with substitutions D343E, L562H (protein, listed as Aspergillus terreus)
chain: MLGKLSFLSALSLAVAAPLSNSTSAKYDYIVIGGGTSGLAVANRLSEDPNVNVLILEAGGSVWNNPNVTNVDGYGLAFGSDIDWQYQSVNQPYGGNLSQVLRAGKALGGTSTINGMAYTRAEDVQIDAWETIGNTGWTWKNLFPYYRKSENFTVPTKSQTSLGASYEAGAHGHEGPLDVAFTQIESNNLTTYLNRTFQGMGLPWTEDVNGGKMRGFNLYPSTVNLEEYVREDAARAYYWPYKSRPNLHVLLNTFANRIVWDGEAHDGHITASGVEITSRNGTVRVINAEKEVIVSAGALKSPAILELSGIGNPSVLDKHNIPVKVNLPTVGENLQDQVNSHMEASGNTSISGTKAVSYPDVYDVFGDEAESVAKQIRANLKQYAADTAKANGNIMKAADLERLFEVQYDLIFKGRVPIAEVLNYPGSATSVFAEFWALLPFARGSVHIGSSNPAEFPVINPNYFMLDWDAKSYVAVAKYIRRSFESYPLSSIVKESTPGYDVIPRNASEQSWKEWVFDKNYRSNFHPVGTAAMMPREIGGVVDERLNVYGTTNVRVVDASVHPFQVCGHLVSTLYAVAERAADLIKADAGRR
modifications: SIGNAL (1)..(19)
B3: D343N: modified GLD: SEQ ID NO: 1 with substitution D343N (protein, listed as Aspergillus terreus)
chain: MLGKLSFLSALSLAVAAPLSNSTSAKYDYIVIGGGTSGLAVANRLSEDPNVNVLILEAGGSVWNNPNVTNVDGYGLAFGSDIDWQYQSVNQPYGGNLSQVLRAGKALGGTSTINGMAYTRAEDVQIDAWETIGNTGWTWKNLFPYYRKSENFTVPTKSQTSLGASYEAGAHGHEGPLDVAFTQIESNNLTTYLNRTFQGMGLPWTEDVNGGKMRGFNLYPSTVNLEEYVREDAARAYYWPYKSRPNLHVLLNTFANRIVWDGEAHDGHITASGVEITSRNGTVRVINAEKEVIVSAGALKSPAILELSGIGNPSVLDKHNIPVKVNLPTVGENLQDQVNSHMNASGNTSISGTKAVSYPDVYDVFGDEAESVAKQIRANLKQYAADTAKANGNIMKAADLERLFEVQYDLIFKGRVPIAEVLNYPGSATSVFAEFWALLPFARGSVHIGSSNPAEFPVINPNYFMLDWDAKSYVAVAKYIRRSFESYPLSSIVKESTPGYDVIPRNASEQSWKEWVFDKNYRSNFHPVGTAAMMPREIGGVVDERLNVYGTTNVRVVDASVLPFQVCGHLVSTLYAVAERAADLIKADAGRR
modifications: SIGNAL (1)..(19)

assay: Relative enzymatic activity of GLD (DCIP/1-m-PMS, plate reader, yeast culture supernatant) with 1,10-phenanthroline present; type: biochemical; settings: random-mutation mutants, sample value with inhibitor at 1 mM / blank value, inhibitor not named in Table 1
Protocol: The susceptibility defined in the present specification is evaluated in terms of a relative activity that is determined in a system wherein the inhibitor coexists or not. The relative activity is derived from a relative value (%) of an enzymatic activity (a sample value) obtained with the addition of the inhibitor in the determination of the enzymatic activity described in the present specification as compared with an enzymatic activity (a blank value) as “100%” obtained without the addition of the inhibitor in the same determination. Thus, the higher the relative activity is, the less the susceptibility to the inhibitor is (or the more the susceptibility to the inhibitor is reduced), vice versa.
The enzymatic activity is determined in the following manner in Examples 3 and 6 wherein a plate reader (Japan Molecular Device Corporation, SpectraMax Plus384) is used. Thus, culture supernatant that had been diluted in advance with an appropriate magnification is added to a 96-well microplate with an amount of 100 μl per well. A reagent for the determination of the enzymatic activity comprising phosphate buffer (pH 7.0), 1.0 M D-glucose, 3 mM DCIP, 3 mM 1-m-PMS and methanol with a volume ratio of 0.1:1:0.14:0.2:0.06 is added to the 96-well microplate with an amount of 100 μl per well, and a change in the absorbance of DCIP at 600 nm (ΔABS/min) is then determined. The enzymatic activity can be calculated by conversion in proportion to a change in the absorbance of an enzyme solution for which the enzymatic activity has already been known by the above-mentioned activity determination procedure using the spectrophotometer.
In the following examples, a value of the enzymatic activity determined by the spectrometer or plate reader using the above reagent composition is considered as a blank value. On the other hand, a sample value is determined using a methanol solution comprising the inhibitor such as 1,10-phenanthroline or proflavin hydrochloride at a final concentration of 1 mM instead of the methanol. Enzymatic activity (unit/mL)=(−ΔABS/16.3)×3.0/0.05×(Dilution ratio of enzyme) [Equation 1]
Into each well of a 96-well microplate (manufactured by Nunc, Inc.), a YPD medium containing 125 μL of 1.0% (w/v) yeast extract (manufactured by BD), 2.0% (w/v) tryptone (manufactured by BD), 2.0% (w/v) glucose (manufactured by Wako Pure Chemical Industries, Ltd.) was dispensed, and the transformant colonies obtained in Example 2 were inoculated thereinto one by one.
After shaking culture at 30° C. and 1,000 rpm for 24 hours, the culture mixture was centrifuged and the supernatant was collected.
According to the above-mentioned method for the determination of enzymatic activity, a blank value and a sample value were determined using a plate reader, and the relative activity (%) was obtained by dividing the sample value by the blank value.

Going from B1 to B2, the “Relative Activity” value falls from 52.2% to 51.8%.

In the case of B3, the “Relative Activity” value is reported as 65.2%.
